This note sets out measurements from patent US20210395379A1 (NUMAB THERAPEUTICS, published 2021).

The target in one assay is T1, Fc tagged human PD-L1 (human, UniProt Q9NZQ7 19-238, limits assumed).
T1 construct: not shown: Fc tag
The assay is described as follows: SPR (Biacore T200), Fc tagged PDL1 captured by anti-human Fc, molecule as analyte 0.18-45 nM. The protocol: (§1) Affinity to PDL1 was determined by SPR measurements using a Biacore T200 device (GE Healthcare). In this experiment, Fc tagged PDL1 from different species was captured using the Human Antibody Capture kit from GE Healthcare (cat. BR-1008-39). After each analyte injection cycle, the anti-human Fc-specific IgG was regenerated and new antigen was captured. For all formats, the multispecific molecules were injected as analyte using a dose response multi-cycle kinetic assay with concentrations of the analyte ranging from 0.18 to 45 nM (two-fold dilutions steps) diluted in running buffer. Association and dissociation time were set to 300 s and 720 s, respectively. The apparent dissociation (kd) and association (kₐ) rate constants and the apparent dissociation equilibrium constant (KD) were calculated using one-to-one Langmuir binding model. Affinity to CD137 of the different species was determined using the identical setup as for PDL1 with the exception that CD137-Fc chimeric proteins from different species were captured by the immobilized antibody.
Background: SPR reads the build-up and loss of mass on a sensor chip optically.

A further assay deals with T2, human serum albumin (human, UniProt P02768 25-609).
T2 construct: Amine-coupled to a CM5 chip; also called human SA; HSA
Nature of the assay: SPR (Biacore T200), serum albumin amine-coupled to CM5 chip, pH 5.5. The protocol:
Affinity of molecules to serum albumin (SA) of the different species was determined by SPR measurements using a Biacore T200 device (GE Healthcare). SA was directly coupled to a CM5 sensor chip (GE Healthcare) using amine coupling chemistry. […] The assay was run in a 1×PBS-Tween buffer at pH 5.5.

For assay [1], the target named is human CD137 expressed on Jurkat cells (human, UniProt Q07011 24-255). The assay is described as follows: cell-based or functional assay.
For assay [2], the target named is T3, Fc tagged human CD137 (R&D Systems, cat. 838-4B-100) (human, UniProt Q07011 24-186).
T3 construct: Bought Fc chimera; also called CD137 Fc chimera; human CD137 (tagged with Fc); not shown: Fc tag of the bought chimera
Nature of the assay: SPR (Biacore T200), CD137-Fc captured by anti-human Fc, molecule as analyte 0.18-45 nM. How it is done:
as §1

Assay [3] concerns the target T3, Fc tagged human CD137 (R&D Systems, …). Nature of the assay: SPR (Biacore T200), Fc tagged human CD137 captured by anti-human Fc, scFv as analyte. How it is done: In this experiment, Fc tagged human CD137 (R&D Systems, cat. 838-4B-100) was captured using the Human Antibody Capture kit from GE healthcare (cat. BR-1008-39). After each analyte injection cycle, the anti-human Fc-specific IgG was regenerated and new antigen was captured. The scFvs were injected as analyte using a dose response multi-cycle kinetic assay over the captured CD137 with concentrations of the analyte ranging from 0.19 to 45 nM (three-fold dilutions steps) diluted in running buffer. Association and dissociation time were set to 300 s and 720 s, respectively. The obtained sensorgrams were fitted using the 1:1 binding model.

The target of assay [4] is CD137 (form used for the alanine mutants of PRO1359 not stated) (Homo sapiens (Human), UniProt Q07011 24-186, limits assumed). Nature of the assay: assay not described.

Positions count from the first letter of the chain named. In names and notes the source's numbering stands.

B1: PRO1480 (other)
chain: DIQMTQSPASLSASVGDRVTITCQASQSIGTYLAWYQQKPGKPPKLLIYRAFILASGVPSRFSGSGSGTDFTLTISSLQPEDFATYYCQSNFYSDSTTIGPNAFGTGTKVTVLGGGGGSEVQLVESGGGLVQPGGSLRLSCAASGFSFSANYYPCWVRQAPGKGLEWIGCIYGGSSDITYDANWTKGRFTISRDNSKNTVYLQMNSLRAEDTAVYYCARSAWYSGWGGDLWGQGTLVTVSSGGGGSGGGGSGGGGSGGGGSIQMTQSPSSLSASVGDRVTITCQASQSISNRLAWYQQKPGKAPKLLIYSASTLASGVPSRFSGSGSGTDFTLTISSLQPEDFATYYCQSTYYGNDGNAFGTGTKVTVLGGGGGSEVQLVESGGGLVQPGGSLRLSCAASGFSFNSDYWIYWVRQAPGKGLEWIASIYGGSSGNTQYASWAQGRFTISRDNSKNTVYLQMNSLRAEDTAVYFCARGYVDYGGATDLWGQGTLVTVSSGGGGSGGGGSIQMTQSPSSLSASVGDRVTITCQSSESVYSNNQLSWYQQKPGQPPKLLIYDASDLASGVPSRFSGSGSGTDFTLTISSLQPEDFATYYCAGGFSSSSDTAFGGGTKLTVLGGGGGSGGGGSGGGGSGGGGSEVQLVESGGGLVQPGGSLRLSCAASGFSLSSNAMGWVRQAPGKGLEYIGIISVGGFTYYASWAKGRFTISRDNSKNTVYLQMNSLRAEDTATYFCARDRHGGDSSGAFYLWGQGTLVTVSS
notes: Trispecific scDb-scFv; CD137 arm derived from 38-27-A11 sc02; also called PRO1480 (38-27-A11); trispecific anti-PDL1xCD137xHSA scDb-scFv
For B1, in the assay with Fc tagged human PD-L1, the Kd is 0.015 nM and the koff turned out to be 5.1e-05 s⁻¹. In the assay with human serum albumin, the Kd is 1.03 nM and the koff was 0.000337 s⁻¹. For the same molecule, in assay [1], the “IC50 (ng/ml), activation of NF-kB reporter gene, HCC827 + IFNg, 6 h, with HSA” value is 6.44 ng/mL and the “IC50 (ng/ml), activation of NF-kB reporter gene, HCC827 + IFNg, 24 h, with HSA” value was found to be 4.67 ng/mL.

B2: PRO1481 (other)
chain: B1 chain with V121S, Y216F, Q233P, I262F, M264L, A303P
notes: Trispecific scDb-scFv; CD137 arm derived from 38-27-A11 sc03
Molecule B2 displayed a koff in the assay with Fc tagged human PD-L1 of 4.3e-05 s⁻¹. In assay [1], the “IC50 (ng/ml), activation of NF-kB reporter gene, HCC827 + IFNg, 6 h, with HSA” value was found to be 7.22 ng/mL and the “IC50 (ng/ml), activation of NF-kB reporter gene, HCC827 + IFNg, 24 h, with HSA” value was determined as 5.51 ng/mL.

B3: PRO1186 (other)
chain: DIQMTQSPSSLSASVGDRVTITCQASQSIGTYLAWYQQKPGKAPKLLIYRAFILASGVPSRFSGSGSGTDFTLTISSLQPEDFATYYCQSNFYSDSTTIGPNAFGTGTKVTVLGGGGGSQVQLQESGPGLVKPSETLSLTCKVSGFSFSNSYWICWIRQPPGKGLEWIGCTFVGSSDSTYYANWAKGRVTISVDSSKNQFSLKLSSVTAADTAVYYCARHPSDAVYGYANNLWGQGTLVTVSSGGGGSGGGGSGGGGSGGGGSDIQMTQSPSSLSASVGDRVTITCQASQSINNVLAWYQQKPGKAPKLLIYRASTLASGVPSRFSGSGSGTDFTLTISSLQPEDFATYYCQSSYGNYGDFGTGTKVTVLGGGGGSQVQLQESGPGLVKPSETLSLTCKVSGFSFNSDYWIYWIRQPPGKGLEWIGSIYGGSSGNTQYASWAQGRVTISVDSSKNQFSLKLSSVTAADTAVYYCARGYVDYGGATDLWGQGTLVTVSSGGGGSGGGGSVVMTQSPSSLSASVGDRVTITCQASQIISSRSAWYQQKPGQPPKLLIYQASKLASGVPSRFSGSGSGTDFTLTISSLQPEDFATYYCQCTYIDSNFGAFGGGTKLTVLGGGGGSGGGGSGGGGSGGGGSEVQLVESGGGLVQPGGSLRLSCAASGFSFSSSYWICWVRQAPGKGLEWVGCVFTGDGTTYYASWAKGRFTISRDNSKNTVYLQMNSLRAEDTATYFCARPVSVYYYGMDLWGQGTLVTVSS
notes: Trispecific scDb-scFv with a different anti-CD137 domain; also called PR01186
The molecule B3 returned an on-rate (kon) in assay [2] of 190000 M⁻¹ s⁻¹.

B4: PRO1704 (38-27-A11 sc07) (scFv)
scFv: DIQMTQSPSSLSASVGDRVTITCQASQSISNRLAWYQQKPGKAPKLLIYSASTLASGVPSRFSGSGSGTDFTLTISSLQPEDFATYYCQSTYYGNDGNAFGCGTKVTVLGGGGGSGGGGSGGGGSGGGGSEVQLVESGGGLVQPGGSLRLSCAASGFSFSANYYPCWVRQAPGKCLEWIGCIYGGSSDITYDANWTKGRFTISRDNSKNTVYLQMNSLRAEDTAVYYCARSAWYSGWGGDLWGQGTLVTVSS
notes: VL-linker-VH, CDR graft with interdomain disulfide (VL-T141C)
Regarding B4, in assay [3], the dissociation constant (Kd) is 3.07 nM, the koff was determined as 0.00353 s⁻¹ and the kon was 1.15e+06 M⁻¹ s⁻¹.

B5: PRO1359 with TRP 233 mutated to alanine (scFv)
scFv: B4 scFv with C102T, C175G, W233A
B5: the “fold reduction of affinity against unmutated PRO1359” value in assay [4] was above 1000 fold.

B6: PRO1359 with TYR 191 mutated to alanine (scFv)
scFv: B4 scFv with C102T, C175G, Y191A
B6: the “fold reduction of affinity against unmutated PRO1359” value in assay [4] is above 1000 fold.

B7: PRO885 (bispecific antibody)
chain: DIQMTQSPSSLSASVGDRVTITCQASQSINDYLAWYQQKPGKAPKLLIYKASTLASGVPSRFSGSGSGTDFTLTISSLQPEDFATYYCQQGYIITDIDNVFGTGTKVTVLGGGGGSQVQLQESGPGLVKPSETLSLTCKVSGFSFSNSYWICWIRQPPGKGLEWIGCTFVGSSDSTYYANWAKGRVTISVDSSKNQFSLKLSSVTAADTAVYYCARHPSDAVYGYANNLWGQGTLVTVSSGGGGSGGGGSGGGGSGGGGSIQMTQSPSSLSASVGDRVTITCQASQSINNVLAWYQQKPGKAPKLLIYRASTLASGVPSRFSGSGSGTDFTLTISSLQPEDFATYYCQSSYGNYGDFGTGTKVTVLGGGGGSQVQLQESGPGLVKPSETLSLTCKVSGFSFSSGYDMCWIRQPPGKGLEWIGCVVAGSVDITYYASWAKGRVTISVDSSKNQFSLKLSSVTAADTAVYYCARKDAYSDAFNLWGQGTLVTVSS
As for B7, the Kd with Fc tagged human PD-L1 worked out at 0.065 nM; in assay [2], 3.2 nM.

As a reminder, the Kd is the concentration at which binding is half-saturated. The term koff denotes the rate constant with which the complex falls apart. The term kon denotes the rate constant with which the complex forms. A low value points to slow association.
